Assay results published in the supplement of paper PMC10567573.
± gives the standard deviation.

Experiment: protein stability index of a GFP-peptide fusion (GPS, HEK-293T) (PSI 1-6); higher = more stable
[1] = treatment: DMSO, c terminus: a fixed tail appended
[2] = treatment: MLN4924 1 uM, 8 h, c terminus: a fixed tail appended
[3] = treatment: DMSO, c terminus: native
[4] = treatment: MLN4924 1 uM, 8 h, c terminus: native
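Also: 24-mer peptide tiles fused after GFP, lentivirally expressed, FACS-sorted into six equal bins by GFP/DsRed ratio, decoded by Illumina sequencing, PSI is the read-weighted mean bin number.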

## LVMEGTDDGRLLEYDTVTREVKVL [APMAP]
[1]
  protein stability index: 3.5 ± 0.21
[2]
  protein stability index: 3.58 ± 0.37

## IIANTMAFQNDVYEWARDHRAHHK [SCD]
[1]
  protein stability index: 2.52 ± 0.17
[2]
  protein stability index: 2.86 ± 0.27

## CFQDFKEEKPQENKTWREQYLRLP [ELOA2]
[1]
  protein stability index: 3.15 ± 0.35
[2]
  protein stability index: 3.25 ± 0.41

## REAVSQLRELCRLWLRPETHTKEQ [ZNF24]
[1]
  protein stability index: 2.8 ± 0.32
[2]
  protein stability index: 3.03 ± 0.41

## LLSSVHVLDLEARGYIKPHVDSIK [ALKBH7]
[1]
  protein stability index: 2.97 ± 0.22
[2]
  protein stability index: 3.19 ± 0.33

## MSFVAGVIRRLDETVVNRIAAGEV [MLH1]
[1]
  protein stability index: 2.85 ± 0.35

## LEQRRQQASEREAPSIEQRLQEVR [FCHSD1]
[1]
  protein stability index: 5.37 ± 0.32
[2]
  protein stability index: 5.26 ± 0.12

## VNMVDVAKALNRPPTYPTKYFGCE [EIF5]
[1]
  protein stability index: 2.56 ± 0.19
[2]
  protein stability index: 2.45 ± 0.18

## ALKAAKREQEKKPKKEANQAPKSK [LRRC59]
[1]
  protein stability index: 5.24 ± 0.27
[2]
  protein stability index: 5.28 ± 0.18

## HTAKCEKLQKEKEELERRFEDEVK [MTUS2]
[1]
  protein stability index: 5.57 ± 0.26
[2]
  protein stability index: 5.6 ± 0.07

## RYTGTTPSPPPGSHYTSPSENMWN [CARM1]
[1]
  protein stability index: 3.48 ± 0.23
[2]
  protein stability index: 3.57 ± 0.23

## PPETVQNWIELLSGETWNPLKLHY [GOLPH3]
[1]
  protein stability index: 2.17 ± 0.24
[2]
  protein stability index: 2.12 ± 0.21

## PVVSAVWGHCEVTMRYINGLDPEP [SPSB4]
[1]
  protein stability index: 2.28 ± 0.23
[2]
  protein stability index: 2.54 ± 0.53

## LKHWRRAMELRHQGGEYLPKPEPP [FEM1A]
[1]
  protein stability index: 3.08 ± 0.53
[2]
  protein stability index: 3.16 ± 0.41

## SSASEGDEDLRRQMQDDEQKTRLL [PALM]
[1]
  protein stability index: 5.51 ± 0.15
[2]
  protein stability index: 5.49 ± 0.19

## ANPFQAYLDVDLTLTREQTERLSH [RTN2]
[1]
  protein stability index: 3.65 ± 0.3
[2]
  protein stability index: 3.67 ± 0.31

## LKGTLVSTLKEVKPTVFIGVPQIW [ACSBG2]
[1]
  protein stability index: 2.65 ± 0.2
[2]
  protein stability index: 3.5 ± 0.61

## RRKCGQYWPLEKDSRIRFGFLTVT [PTPN9]
[1]
  protein stability index: 2.3 ± 0.69
[2]
  protein stability index: 2.16 ± 0.47

## RSIQGHNDYICPATNQCTIDKNRR [ESR2]
[1]
  protein stability index: 3.84 ± 0.43
[2]
  protein stability index: 4.21 ± 0.33

## QDGLPPTWRDFRTLEAFHDTCRQ [MED27]
[3]
  protein stability index: 4.16 ± 0.27
[4]
  protein stability index: 4.21 ± 0.4

## SRTCIGSSHSRGPLSWAPCGPIAG
[1]
  protein stability index: 2.76 ± 0.18
[2]
  protein stability index: 2.84 ± 0.36

## TARRSKRERREEDRAPAEQVPRSP [PWWP2B]
[1]
  protein stability index: 5.38 ± 0.26
[2]
  protein stability index: 5.16 ± 0.45

## TPGLGVVAVLLLFLVVREPPRGAV [SPNS1]
[1]
  protein stability index: 2.69 ± 0.44
[2]
  protein stability index: 3.28 ± 0.6

## MSRQFTCKSGAAAKGGFSGCSAVL [KRT71]
[1]
  protein stability index: 2.59 ± 0.35
[2]
  protein stability index: 2.18 ± 0.43

## KENSHQVKEELSQKFDTLYAILDE [TRIM63]
[1]
  protein stability index: 4.77 ± 0.27
[2]
  protein stability index: 4.57 ± 0.18

## HPDDRPKLNKPPETLITTIDSSSS [CYB5A]
[1]
  protein stability index: 4.85 ± 0.49
[2]
  protein stability index: 5.04 ± 0.32

## VPQRTAGGDVPERELYIRWLEVAA [MYORG]
[1]
  protein stability index: 2.62 ± 0.19
[2]
  protein stability index: 2.77 ± 0.3

## VCISTKTQCSEEDQCKINKQIYNL [FEM1B]
[1]
  protein stability index: 3.22 ± 0.19
[2]
  protein stability index: 3.33 ± 0.25

## TPPSSRRVWSPPRVHKVEMGFGGG [ZBTB22]
[1]
  protein stability index: 3.22 ± 0.4
[2]
  protein stability index: 3.33 ± 0.081

## SRLLLLEQELKTVTYSLLKRLKER [SMAD6]
[1]
  protein stability index: 2.77 ± 0.34
[2]
  protein stability index: 2.55 ± 0.49

## FRFDKPKKSRSPASAEAPGDSGER [ZNF511]
[1]
  protein stability index: 4.95 ± 0.11
[2]
  protein stability index: 5.11 ± 0.38

## DQDLDALMADLVADISEAEQRTIQ [APBB1IP]
[1]
  protein stability index: 4.48 ± 0.36
[2]
  protein stability index: 4.56 ± 0.21

## ADDPTSGFSSIPDAFWWAVVTMTT [KCNA3]
[1]
  protein stability index: 2.94 ± 0.92
[2]
  protein stability index: 2.6 ± 0.4

## CGSQLSSTKGSRSNLSTRDASILT [NETO1]
[1]
  protein stability index: 2.62 ± 0.2
[2]
  protein stability index: 2.65 ± 0.21

## LSMERYALVFGVNTFIALALQTLL [SLC19A2]
[1]
  protein stability index: 3.04 ± 0.22
[2]
  protein stability index: 2.93 ± 0.53

## SAAGHLKVVQSLLNHGASVNNTTL [FEM1C]
[1]
  protein stability index: 3.06 ± 0.21
[2]
  protein stability index: 3.13 ± 0.38

## ENVKDVPFGFQTVTSDVNKLSSFY [SERPINB5]
[1]
  protein stability index: 2.74 ± 0.15
[2]
  protein stability index: 3.09 ± 0.46

## GKGEGPIWLDNLHCTGNEATLAAC [LOXL2]
[1]
  protein stability index: 3.43 ± 0.23
[2]
  protein stability index: 3.52 ± 0.57

## FRPVSETCTDRSGISTGHWSGEVK [FUT8]
[1]
  protein stability index: 3.79 ± 0.28
[2]
  protein stability index: 3.84 ± 0.26

## QAKILQCYRENTHQTLKCSALATQ [CHCHD3]
[1]
  protein stability index: 3.21 ± 0.31
[2]
  protein stability index: 3.33 ± 0.26

## PAVPEEILKRLLKEQHLWDVDLLD [DLC1]
[1]
  protein stability index: 2.97 ± 0.55
[2]
  protein stability index: 3.12 ± 0.34

## PIPHVFSAGTGSAILPHFHHAFR [PLAGL1]
[3]
  protein stability index: 3.04 ± 0.22
[4]
  protein stability index: 3.17 ± 0.16

## TGERPYECNECGKAFSRSSGLFNH [ZSCAN9]
[1]
  protein stability index: 2.48 ± 0.4
[2]
  protein stability index: 2.6 ± 0.37

## NARAQQRAAAQQRRSFLNAHHRSG [GNAS]
[1]
  protein stability index: 4.28 ± 0.32
[2]
  protein stability index: 4.36 ± 0.14
